Our source for the koff and Kd values is article PMC3931814, “Dehydroepiandrosterone Sulfate (DHEAS) Stimulates the First Step in the Biosynthesis of Steroid Hormones” (PLoS ONE, 2014).

Conditions in all cases: both partners purified
Assay [1] has as its target T1, CYP11A1 (UniProt P00189 40-520).
T1 construct: CYP11A1 (cholesterol side-chain cleavage cytochrome P450); Single band at 55 kDa on SDS gel; Heme protein; also called recombinant CYP11A1; His-tagged CYP11A1; source: E. coli C43(DE3), co-transformed with groEL/groES chaperones, purified (IMAC Ni-NTA, SP-sepharose)
T1 sequence (looked up): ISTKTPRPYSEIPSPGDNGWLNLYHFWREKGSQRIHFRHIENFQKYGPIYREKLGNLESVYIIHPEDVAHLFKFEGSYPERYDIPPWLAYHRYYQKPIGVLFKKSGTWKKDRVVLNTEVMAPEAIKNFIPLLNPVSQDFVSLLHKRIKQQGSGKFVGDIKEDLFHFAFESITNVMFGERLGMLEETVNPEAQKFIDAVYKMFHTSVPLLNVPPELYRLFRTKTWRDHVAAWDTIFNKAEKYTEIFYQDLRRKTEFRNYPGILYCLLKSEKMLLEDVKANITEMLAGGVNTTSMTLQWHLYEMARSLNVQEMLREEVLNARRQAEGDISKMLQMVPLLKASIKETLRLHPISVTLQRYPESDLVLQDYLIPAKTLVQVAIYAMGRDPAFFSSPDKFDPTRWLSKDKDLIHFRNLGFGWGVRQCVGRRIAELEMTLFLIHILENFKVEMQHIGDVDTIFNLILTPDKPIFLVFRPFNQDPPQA
The experiment in a line: SPR; Biacore3000; CYP11A1 injected at 5-7.5 nM in HBS-EP buffer, at least three times each; bound CYP11A1 removed with 2 mM NaOH; in absence of cholesterol; Biaeval 4.1. Details: scale not given here. (In general: SPR reads the build-up and loss of mass on a sensor chip optically.)

Assay [2] concerns the target T1, CYP11A1. The experiment in a line: SPR; Biacore3000; CYP11A1 injected at 5-7.5 nM in HBS-EP buffer; bound CYP11A1 removed with 2 mM NaOH; in the presence of cholesterol (CYP11A1:cholesterol 1:10 by the methods, 1:15 by the legend of Figure 7); Biaeval 4.1. Also on record: scale not given here.
Assay [3] concerns the target T1, CYP11A1. Kind of assay: SPR; Biacore3000; CYP11A1 injected at 5-7.5 nM in HBS-EP buffer, at least three times each; bound CYP11A1 removed with 2 mM NaOH; in absence of cholesterol; Biaeval 4.1.
Assay [4] addresses T1, CYP11A1. Kind of assay: SPR; Biacore3000; CYP11A1 injected at 5-7.5 nM in HBS-EP buffer; bound CYP11A1 removed with 2 mM NaOH; in the presence of cholesterol and DHEAS (CYP11A1:cholesterol:DHEAS 1:10:50 by the methods, 1:15:75 by the legend of Figure 7); Biaeval 4.1.
The target of assay [5] is T1, CYP11A1. Kind of assay: SPR; Biacore3000; CYP11A1 injected at 5-7.5 nM in HBS-EP buffer; bound CYP11A1 removed with 2 mM NaOH; in the presence of cholesterol (CYP11A1:cholesterol 1:10 by the methods, 1:15 by the legend of Figure 7); Biaeval 4.1.

B1: bovine adrenodoxin (natural protein, UniProt P00257 59-186, looked up)
chain: SSSEDKITVHFINRDGETLTTKGKIGDSLLDVVVQNNLDIDGFGACEGTLACSTCHLIFEQHIFEKLEAITDEENDMLDLAYGLTDRSRLGCQICLTKAMDNMTVRVPDAVSDARESIDMGMNSSKIE
notes: adrenodoxin (Adx), bovine, the ferredoxin that transfers electrons to CYP11A1; [2Fe-2S] protein; also called Adx
Regarding B1, the figures for the koff with CYP11A1 [1] and with CYP11A1 [2] were 2.4 ± 0.99 s⁻¹ and 2.8 ± 0.09 s⁻¹, respectively. Also, the Kd with CYP11A1 [3] amounted to 3.8 ± 0.55 nM; in the assay with CYP11A1 [4], 2.4 ± 0.05 nM; with CYP11A1 [5] it was 3 ± 0.35 nM.

As a reminder, the koff is the rate constant with which the complex falls apart. As a reminder, the Kd is the constant that tells how readily two partners part at equilibrium.
